Assay results taken from patent publication US20180327500A1 (SYMPHOGEN A S, published 2018).
One block for each binder: values may come before it.

Target: T1, His tagged human MET ECD (Sinobiological) (human, UniProt P08581 25-932)
T1 construct: Bought monovalent antigen; also called human MET antigen; not shown: His tag
Test: BLI (Octet QK384); antibody captured on anti-human Fc sensors, monovalent MET ECD in solution, 1:1 Langmuir fit

T1 sequence (P08581 25-932): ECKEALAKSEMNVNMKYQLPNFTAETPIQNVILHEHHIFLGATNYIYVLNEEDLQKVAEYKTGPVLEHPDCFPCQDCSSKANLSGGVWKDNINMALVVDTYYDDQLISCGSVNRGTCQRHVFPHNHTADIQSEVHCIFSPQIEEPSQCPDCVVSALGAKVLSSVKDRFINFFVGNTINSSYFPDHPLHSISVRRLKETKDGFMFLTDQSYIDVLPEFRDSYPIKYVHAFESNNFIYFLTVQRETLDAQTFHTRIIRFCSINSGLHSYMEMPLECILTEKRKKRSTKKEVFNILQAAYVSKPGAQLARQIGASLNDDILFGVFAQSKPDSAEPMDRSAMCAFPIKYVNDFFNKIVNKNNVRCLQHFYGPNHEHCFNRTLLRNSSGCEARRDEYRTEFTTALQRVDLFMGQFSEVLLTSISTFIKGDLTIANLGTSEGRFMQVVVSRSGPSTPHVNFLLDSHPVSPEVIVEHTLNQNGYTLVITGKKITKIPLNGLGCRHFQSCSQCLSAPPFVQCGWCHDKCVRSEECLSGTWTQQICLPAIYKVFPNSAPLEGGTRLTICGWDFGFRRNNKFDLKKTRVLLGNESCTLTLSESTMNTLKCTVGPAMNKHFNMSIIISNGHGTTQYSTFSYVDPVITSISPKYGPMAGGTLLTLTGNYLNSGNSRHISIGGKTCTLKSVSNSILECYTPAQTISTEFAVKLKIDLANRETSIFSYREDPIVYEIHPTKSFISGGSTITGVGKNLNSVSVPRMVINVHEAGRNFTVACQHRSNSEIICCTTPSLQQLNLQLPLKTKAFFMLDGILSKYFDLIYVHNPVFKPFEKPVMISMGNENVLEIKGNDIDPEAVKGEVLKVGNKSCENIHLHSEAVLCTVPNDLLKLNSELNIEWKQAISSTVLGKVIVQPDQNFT

Kd: 2.2 nM
koff: 0.00012 s⁻¹
kon: 54000 M⁻¹ s⁻¹
B1: chimeric antibody 9006 (antibody, V domains shown)
VH: QIHLGQSGPELKKPGETVKISCKASGYTFTNFRMNWVKQAPGKGLKWMGWINTYTGEPTYVDDLKGRFAFSLETSASTAYLQINNLKNEDMATYFCARKGIARAMDYWGQGTSVTVSS
VL: NIVMTQSPSSLSVSAGEMVTMSCKSSQSLLDSGNQKNYLAWYQQKPGQPPQLLIFGASTRESGVPDRFTGSGSGTDFTLTVSSVQAEDLAVYYCQNDHSYPYTFGGGTKLEIK

Kd: 0.6 nM
koff: 0.00011 s⁻¹
kon: 190000 M⁻¹ s⁻¹
B2: chimeric antibody 9338 (antibody, V domains shown)
VH: QVQLQQPGAELAKPGASVRMSCKASGYTFTSYWMHWVKQRPGQGLEWIGYINPSSGHIENNQKFKDKATLTADKSSSTAYMQLSSLTFEDSAVYYCARGRFAYWGQGTLVTVSS
VL: DIVMTQSPAIMSASPGEKVTLTCSASSSVSSGYLYWYQQKPGSSPKLWIYSTSNLASGVPARFSGSGSGTSYSLTVNSMEAEDAASYFCHQWSSYPFTFGSGTKLELK
